Source: patent US20230226096A1 (Orna Therapeutics, Inc., priority 2020, published 2023)

Test system: HEK293 cells
Assay type: cell-based, human
Details: luminescence from secreted Gluc in supernatant 24 hours after transfection of HEK293 cells; circular RNA encoding Gluc with the named IRES (UTR truncated to 675 nt)

B1: Equine rhinitis A virus (nucleic acid)
DNA: AAGGGTTACTGCTCGTAATGAGAGCACATGACATTTTGCCAAGATTTCCTGGCAATTGTCACGGGAGAGAGGAGCCCGTTCTCGGGCACTTTTCTCTCAAACAATGTTGGCGCGCCTCGGCGCGCCCCCCCTTTTTCAGCCCCCTGTCATTGACTGGTCGAAGGCGCTCGCAATAAGACTGGTCGTTGCTTGGCTTTTCTATTGTTTCAGGCTTTAGCGCGCCCTTGCGCGGCGGGCCGTCAAGCCCGTGTGCTGTACAGCACCAGGTAACCGGACAGCGGCTTGCTGGATTTTCCCGGTGCCATTGCTCTGGATGGTGTCACCAAGCTGGCAGATGCGGAGTGAACCTTACGAAGCGACACACCTGTGGTAGCGCTGCCCAGAAGGGAGCGGAGCTCCCCCGCCGCGAGGCGGTCCTCTCTGGCCAAAAGCCCAGCGTTAATAGCGCCTTCTGGGATGCAGGAACCCCACCTGCCAGGTGTGAAGTGGACTAAGTGGATCTCCAATTTGGCCTGTTCTGAACTACACCATCTACTGCTGTGAAGAATGTCCTGAAGGCAAGCTGGTTACAGCCCTGATCAGGAGCCCCGCTCGTGACTCTCGATCGACGCGGGGTCAAAAACTGTCTAAGCAGCAGCAGAAACGCGGGAGCGTTTCTTTTTCCTCATTTGTTTC
modifications: Equine rhinitis A virus
Expression: 3.73E+05

B2: Equine arteritis virus (nucleic acid)
DNA: GCTCGAAGTGTGTATGGTGCCATATACGGCTCACCACCATATACACTGCAAGAATTACTATTCTTGTGGGCCCCTCTCGGTAAATCCTAGAGGGCTTTCCTCTCGTTATTGCGAGATTCGTCGTTAGATAACGGCAAGTTCCCTTTCTTACTATCCTATTTTCATCTTGTGGCTTGACGGGTCACTGCCATCGTCGTCGATCTCTATCAACTACCCTTGCGACT
Expression: 1.89E+05

B3: Enterovirus sp. isolate CPML (nucleic acid, listed as Enterovirus sp.)
DNA: ACTCTGGTATCACGGTACCTTTGCACGCCTATTTTATACCCCTTCCCCATCGTAACTTAGAAGCAACAAACAAACTGCCCAATAGCAGCACAACACCCAGTTGTGTTAGGGGCAAGCACTTCTGTTTCCCCGGAAGGGTCTGACGGTATGCTGTACCCACGGCAGAAGTATGACCTACCGTTAACCGGCCATGTACTTCGAGAAGCCTAGTACCATTATGAAGGTTGATTGATGTTACGCTCCCCAGCAACCCCAGCTGGTAGTTCTGGTCGATGAGTCTCGGCATTCCCCACGGGCGACCGTGGCCGAGGCTGCGTTGGCGGCCAGCCTACACCATACGGTGTAGGACGTCAAGATACTGACATGGTGTGAAGAGCCTATTGAGCTACGTGGTAGTCCTCCGGCCCCTGAATGCGGCTAATCCTAACTCCGGAGCATCCGCCAGTAAGCCCACTGGAAGGGTGTCGTAATGCGAAAGTCTGGAGCGGAACCGACTACTTTGGGTGTCCGTGTTTCCTGTTTTACTTATTGTTTGGCTGCTTATGGTGACAACTTATAGTTATCATCATAAGCTACTTGGTCTTGCCAACCGGAGAATTATTTGGTTATTTGTTGGTTTCATAAACCTACAGTCGTATTTTCCTGTCTTATTAATTGTTCTCAAAATTAACAACA
Expression: 6.83E+07

B4: Enterovirus AN12 (nucleic acid, listed as Enterovirus sp.)
DNA: TACCGCTGCACCAGTGAGCTGGTACGCTAGTACCTTCGCACGGAGTAGATGGCATCCCCCACCCCGTAACTTAGAAGCAAAGTACACATCTGGCCAATAGTGGCGCTGCATCCAGCCGCGCAACGGTCAAGCACTTCTGTTTCCCCGGTCCGCAAGGGTCGTTATCCGCCCAGTCCACTACGGAAAGCCTACTAACCATTGAAGCTATCGAGAGGTTGCGCTCGGCCACGACCCCGGTGGTAGCTCTGAGTGATGGGGCTCGCAAACACCCCCGTGGTAACACGGATGCTTGCCCGCGCGTGCACTCGGGTTCAGCCTATTGGTTGTTCACCTCAACATAGTGTAAATGGCCAAGAGCCTACTGTGCTGGATTGGTTTTCCTCCGGAGCCGTGAATGCTGCTAATCCCAACCTCCGAGCGTGTGCGCACAATCCAGTGTTGCTACGTCGTAACGCGTAAGTTGGAGGCGGAACAGACTACTTTCGGTACTCCGTGTTTCTTTTGTTTTATTTTGAATTTTATGGTGACAATTGCTGAGATTTGCGAATTAGCGACTCTACCGCTGAACATTGCCCTGTACTACCTAATCGCATTTCACAAAACCTCAGAGATACCAAGCTCTTACATTGATCTGCTTGTTTTCCTGAATCTCAAATATAAATTGGAACAAGCAAA
Expression: 3.87E+06

B5: Dolphin morbillivirus (nucleic acid, listed as Morbillivirus sp.)
DNA: ACCAGACAAAGCTGGCTAGGGGTAGAATAACAGATAATGATAAATTATCATACTTAGGATTAATGATCCTATCAATTGGCACAGGATTTGGATAAAGGTTCACAGTC
modifications: chemistry not fully specified; the letters are possibly those of the target site
Expression: 1.22E+05

B6: Dianke virus (nucleic acid)
DNA: TGTTTTCAACCATAATACTACTACTACAAGTATAAAACCCCGTCCGTCTGTCGGAGACGCTAAACTCTGACCACCAATCTAGCCACATCAGTTGCTTAAAGAACCTCTTGAGACACTCTCCCACTTAACATCTTTTAGGAATCTTCGATGCTACAACAACTTGGCTAGTGAACAATAAATCCGTACAATTCACAGTTGTAAGAGGCCATAGGTCCAGACTTTGAAAGGTTTGTTTCTATTGTTACAAATACTTAGATTAACAGAGGCTATTTAATAGTGCTCATCACGTTAACAGAGTAACCTTGTGCAATAGTATGAGCTTGTTGTAAAACGTCTTGATACGACACC
Expression: 1.35E+05

B7: Guereza hepacivirus (nucleic acid, listed as Hepacivirus sp.)
DNA: CACTCAATACTACACTCCGCATTTGGGGAGAAGCGCTGGCGTTCGCGGAACCGCGTTAACCATACGCGTAGTACGAGTGCGACAGACCCCGGTGCTACTGGTGGTAGCGAGACACGAGCCGAAGTCTGTGGGGGGAACTCCACTTAGAGGGCATGCCCGGGCGTAGGCTTCTGAGTTGGGATGGGCCCCAACTTGGCCCCTGAGTGGGGGGGTGTTACGACCTGATAGGGTGCGGGCTGGCGCCTACCACTTTCCAGTCGTACATGAGTC
Expression: 1.38E+05

B8: Megirivirus A LY (nucleic acid)
DNA: TTCGGGACACTGGATGGGCGACTTGGTGGGGCTGCCACTCTATCTTGACCTTTCGTTACTGACTTTCGGATCTCTGACTCCTCCTTGTCTCTTGCGTTTGGTCCACGGACGGACTAATTGGAATGTTTACTGGCTAAGCCTCGTTCTGAAATACCCTAGCCAATGGGTTGTAGTAGGATCCTGGTGTTTCCATTAAACCTCTTCCGACCATAGTAGCTAGAGTTATGGCTGTGTAGGATGTGGGTAAGACCGCTTTTTGCGTATCTCCCACAAGACACCGGATTATGGATGTGTCCGCTGGATAAGGCTCGAAACCTCCCAACTGAAGGTGGTGCTGAAATATTGCAAGCCTAGGTTGTGTAGAGGCAAGTAGATGCCTGCCGCGACATTCGTCTTCCGCCCTTTTGGGTTAGTAGTGTACCTACATGGACGTGGGGCTGGGAATCCCCACCTTGCATAACACTGGTTGATAGACCTGCGGCTGGTCAAGTTACTATGGTATAACCAGTTGAAATGGCT
Expression: 1.80E+06

B9: Grapevine associated narnavirus-1 (nucleic acid, listed as Narnavirus sp.)
DNA: GCCCGGGGGGTGCAGTCCTGTGAAAGGGTCTGCACCATACTATATATGTATATGATTACATCCCAAAAGGCGACTTCGTTCAGGTTTTAAATCTGACGTAGGTCCAGTAAATAAGCATGTCAAAACATGTAAGTTTATCCTGTAATCTACTCTCATAAGATGAGATAAGATGATATTGCAGTTCCCATGTAAATAAATCCATTATGAATTCATTCATATAAGGTAGAAGTGGTAACTATGGTTGAAACATTAATATAAAACGGTCATTTTGCATGAACGTCATTAAGGAACTGGCATACCAATGTCTATTTAGTGACTATGATATTTAGAGTATCCCTTATATTAATTAACAATTATTCCTTTTAGCATATCATCCGACAACAAATTTTAAAAGAAGAAATATTACTCATTAAAA
Expression: 1.30E+05
